Laboratory results published in patent US6613746.

Columns and labels:
[1] = biological target: ELAM-Rg, soluble ELAM-1-IgG1 chimera (ELAM-1 extracellular domain fused to hinge, CH2 and CH3 domains of human IgG1) (human) (UniProt P16581); experiment: inhibition of adhesion of myeloid HL60 cells to immobilized ELAM-1, fusion protein at about 50 µg/ml
[2] = biological target: ELAM-Rg, soluble ELAM-1-IgG1 chimera (ELAM-1 extracellular domain fused to hinge, CH2 and CH3 domains of human IgG1) (human) (UniProt P16581); experiment: inhibition of adhesion of human T lymphocytes to immobilized ELAM-1, fusion protein at about 50 µg/ml

Sequence of ELAM-Rg, soluble ELAM-1-IgG1 chimera (ELAM-1 extracellular domain fused to hinge, CH2 and CH3 domains of human IgG1) (human) (P16581 22-556 limits assumed, stated change not applied): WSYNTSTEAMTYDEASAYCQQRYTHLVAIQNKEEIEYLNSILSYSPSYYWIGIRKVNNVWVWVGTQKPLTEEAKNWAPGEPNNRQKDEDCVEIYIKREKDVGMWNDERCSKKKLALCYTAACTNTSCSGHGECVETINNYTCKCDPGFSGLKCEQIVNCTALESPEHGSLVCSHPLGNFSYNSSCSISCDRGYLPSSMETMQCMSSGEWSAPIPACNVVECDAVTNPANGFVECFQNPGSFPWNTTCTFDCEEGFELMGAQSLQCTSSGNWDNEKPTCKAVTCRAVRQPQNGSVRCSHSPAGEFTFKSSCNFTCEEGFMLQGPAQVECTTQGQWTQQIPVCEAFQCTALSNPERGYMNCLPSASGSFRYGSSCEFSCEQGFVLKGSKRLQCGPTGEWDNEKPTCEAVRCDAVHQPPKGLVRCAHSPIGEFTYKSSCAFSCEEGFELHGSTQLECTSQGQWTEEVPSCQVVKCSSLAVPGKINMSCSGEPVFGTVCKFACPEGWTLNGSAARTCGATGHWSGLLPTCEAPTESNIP

α1-AGP-IgG1 fusion protein (α1-AGP-Hinge-CH2-CH3) produced in COS cells (Fc fusion)
inhibition of adhesion [1]: > 50%
inhibition of adhesion [2]: > 50%
